Measurements from patent publication US9909146B2, “Production of alkenes by enzymatic decarboxylation of 3-hydroxyalkanoic acids” (priority 2008, dated 2018).

What was measured:
[1] = target: T1, MDP decarboxylase of Saccharomyces cerevisiae (Saccharomyces cerevisiae, UniProt P32377); assay: Activity of protein extract (S. cerevisiae MDP decarboxylase) towards 3-hydroxy-3-methylbutyrate, with or without cofactor; type: biochemical
T1 construct: made in house; host or cells: E. coli BL21
T1 sequence (P32377 1-396): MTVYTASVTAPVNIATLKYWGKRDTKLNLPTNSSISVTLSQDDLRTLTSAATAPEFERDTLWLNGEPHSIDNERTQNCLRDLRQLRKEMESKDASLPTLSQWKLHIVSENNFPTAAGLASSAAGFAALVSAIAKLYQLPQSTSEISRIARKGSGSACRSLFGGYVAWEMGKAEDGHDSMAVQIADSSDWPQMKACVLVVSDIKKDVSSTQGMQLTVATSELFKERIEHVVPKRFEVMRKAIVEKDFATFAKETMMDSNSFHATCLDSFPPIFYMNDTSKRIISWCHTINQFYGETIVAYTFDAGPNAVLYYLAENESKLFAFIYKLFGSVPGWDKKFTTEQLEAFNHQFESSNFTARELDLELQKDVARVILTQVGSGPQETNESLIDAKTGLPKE
Experimental: The gene encoding MDP decarboxylase of Saccharomyces cerevisiae is synthesized from overlapping oligonucleotides and cloned in a pET plasmid (Novagen) allowing expression in bacteria. Said plasmid is then transformed by electroporation into bacterial strain BL21 (Invitrogen). The bacteria are streaked on a Petri dish containing ampicillin and incubated at 37° C. The next day, a bacterial colony is randomly selected and used to inoculate 50 ml of LB medium containing ampicillin. The culture is incubated for 24 h while shaking, after which the culture is centrifuged, the bacteria lysed by sonication, and a total protein extract prepared. An aliquot of the extract is loaded on an electrophoresis gel together with a protein extract from the same strain which has not been transformed, and with molecular weight markers. […]
Vials are sealed with a septum and crimped. […] After incubation, a gas syringe is used to collect the gas present in each vial, and the CO2 concentration in the samples is measured by gas chromatography. […] The presence of isobutylene in the gas sample from vial 6 is then measured by gas chromatography with infrared or flame ionization detection. […]
As in the previous example, isobutylene formation is measured by gas chromatography with infrared or flame ionization detection.

[2] = target: T2, enzyme SEQ ID NO: 6 (MDP decarboxylase) (Picrophilus torridus, UniProt Q6KZB1); assay: Substrate range test, Km of enzyme SEQ ID NO: 6 for HIV; type: biochemical; details: previously described conditions, incubation at 50° C., read-out: Km of the enzyme / affinity for HIV
T2 construct: 6-Histidine tag (N); made in house; host or cells: E. coli BL21(DE3)
T2 sequence (Q6KZB1 1-324): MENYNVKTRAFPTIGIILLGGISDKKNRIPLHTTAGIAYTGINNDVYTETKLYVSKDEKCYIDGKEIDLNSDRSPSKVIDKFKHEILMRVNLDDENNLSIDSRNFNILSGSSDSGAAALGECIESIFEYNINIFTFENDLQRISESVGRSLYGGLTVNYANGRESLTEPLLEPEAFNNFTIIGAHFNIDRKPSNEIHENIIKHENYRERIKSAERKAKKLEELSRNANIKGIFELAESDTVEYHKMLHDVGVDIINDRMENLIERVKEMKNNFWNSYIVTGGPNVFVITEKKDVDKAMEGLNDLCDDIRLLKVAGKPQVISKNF
Experimental: FIG. 13: IBN production according to concentration of HIV substrate.
A substrate range was tested in the previously described conditions, with incubation at 50° C. The Km of the enzyme is approximately 40 mM HIV.

[3] = target: T2, enzyme SEQ ID NO: 6 (MDP decarboxylase); assay: Effect of ATP co-substrate and Mg2+ cofactor on IBN production by enzyme SEQ ID NO: 6; type: biochemical; details: 1 mg/ml enzyme, 72 h at 30° C.
Experimental: Effect of ATP Co-Substrate
(§1) 200 mM HIV (to be specified)
(§2) Incubation 72 h at 30° C.
Other molecules, and in particular those containing a phosphoanhydride bond, could also be efficient co-substrates for the enzyme.
Other ions, and in particular other divalent ions, could be used as cofactor in place of or in addition to Mg^2+ ions.

[4] = Conversion of HIV to isobutylene (IBN) by purified enzyme SEQ ID NO: 6, GC measurement; type: biochemical, Picrophilus torridus
Experimental: The recombinant enzyme was purified as described in example 4.
The activity of the isolated enzyme was confirmed. The reaction was carried out in the following conditions:
After 72 h incubation at 30° C., the signal was measured by GC/MS. In the presence of the enzyme, IBN production was increased here by approximately 2.3-fold over background noise. The background noise observed here is in agreement with the organic chemistry literature, showing that in aqueous solution and at a temperature of around 100° C., 3-hydroxyisovaleric acid slowly decarboxylates to tert-butanol, which is partially dehydrated to isobutylene, following an equilibrium favorable to the formation of tert-butanol (Pressman and Luca, J. Am. Chem. Soc. 1940).
Enzymatic Activity According to Temperature
as §1
Incubation 72 h at different temperatures.
as §2
Optimal conditions were obtained with a pH of 5.5 in 100 mM citrate.
Optimization of Reaction Conditions
Optimum reaction conditions were sought, and the following conditions were retained:
Incubation 48 h at 50° C.

[5] = Screening of a library of 63 MDP decarboxylase family enzymes for activity on HIV; type: biochemical; details: 200 mM HIV, 10 mM ATP, pH 5.5 or 7.0, 37° C. for 72 h, GC/MS
Text: A library of 63 genes encoding enzymes from the MDP decarboxylase family was obtained and tested for activity on HIV as substrate.
The genes encoding the mevalonate diphosphate (MDP) decarboxylase family EC 4.1.1.33 were cloned in the pET 25b vector (Novagen) in the case of eukaryotic genes and pET 22b (Novagen) for genes of prokaryotic origin, with a 6-Histidine tag at the N-terminal end immediately after the methionine initiation codon. Competent E. coli BL21(DE3) cells (Novagen) were transformed with these vectors by heat shock. The cells were grown with shaking (160 rpm) at 30° C. in TB medium containing 0.5 M sorbitol, 5 mM betain, 100 μg/ml ampicillin until reaching an OD at 600 nm comprised between 0.8 and 1. Isopropyl-B-D-thiogalactopyranoside (IPTG) was then added to a final concentration of 1 mM and protein expression was continued at 20° C. overnight (approximately 16 h). The cells were collected by centrifugation at 4° C., 10,000 rpm for 20 min and the pellets were frozen at −80° C. […]
The clarified bacterial lysates were loaded on a PROTINO-1000 Ni-IDA column (Macherey-Nagel) allowing adsorption of 6-His tag proteins. […] Protein was quantified by the Bradford method. […]
The gas present above the reactions was collected with a syringe equipped with a no-return mechanism. The gas sample was analyzed by gas chromatography (GC) coupled with mass spectrometry (MS). […]

For `CC(C)(O)CC(=O)O` [HIV, 3-hydroxy-3-methylbutyrate], which “reaction of the enzyme preparation (CO2 detected by gas chromatography)” value ([1]; vial 6, 5 mM ATP, 10 mM MgCl2, 37° C., 4 hours to 3 days) is on record?
The value was “significant reaction”.

What about the Km [2] of the same molecule?
Its Km is ~40 mM.

Which “amount of isobutylene produced over time with cofactor” value ([1]; 10 μl of 10 mg/l ethyl diphosphate added to 3-hydroxy-3-methylbutyrate reaction) does the source give for `CCOP(=O)(O)OP(=O)(O)O` [ethyl diphosphate, reference compound] here?
Its value is “markedly higher”.

For `[Mg+2]` [Mg^2+], which “enzyme activity (IBN production) in presence and absence of Mg2+” value ([3]; 0 or 5 mM MgCl2, 100 mM citrate pH 5.5, 10 mM ATP, 200 mM HIV) is on record?
The value was “improved”.

For `Nc1ncnc2c1ncn2[C@@H]1O[C@H](COP(=O)(O)OP(=O)(O)OP(=O)(O)O)[C@@H](O)[C@H]1O` [ATP], which “enzyme activity (IBN production) in presence and absence of ATP” value ([3]; 0 or 10 mM ATP, 100 mM citrate pH 5.5, 200 mM HIV) is on record?
Its value is “only observed in the presence”.

B1: Candidate 10: purified decarboxylase enzyme of SEQ ID NO: 6 from Picrophilus torridus, Q6KZB1, N-terminal His tag (protein)
chain: MENYNVKTRAFPTIGIILLGGISDKKNRIPLHTTAGIAYTGINNDVYTETKLYVSKDEKCYIDGKEIDLNSDRSPSKVIDKFKHEILMRVNLDDENNLSIDSRNFNILSGSSDSGAAALGECIESIFEYNINIFTFENDLQRISESVGRSLYGGLTVNYANGRESLTEPLLEPEAFNNFTIIGAHFNIDRKPSNEIHENIIKHENYRERIKSAERKAKKLEELSRNANIKGIFELAESDTVEYHKMLHDVGVDIINDRMENLIERVKEMKNNFWNSYIVTGGPNVFVITEKKDVDKAMEGLNDLCDDIRLLKVAGKPQVISKNF
modifications: N-terminal His tag
Which “IBN production in presence of enzyme over background noise” value ([4]; 100 mM Tris-HCl, 10 mM MgCl2, 10 mM ATP, 20 mM KCl, pH 6.0, 3 mg/ml enzyme, 72 h at 30° C., GC/MS) does the source give for B1 here?
Its value is “approximately 2.3 fold”.

What about the “temperature optimum of enzymatic activity” value ([4]; 100 mM buffer, 50 mM KCl, 10 mM ATP, 200 mM HIV, 1 mg/ml enzyme, 72 h at different temperatures) of the same molecule?
Its value is “approximately 50 °C”.

What about the “optimal pH of enzymatic activity” value ([4]; 100 mM citrate, 50 mM KCl, 10 mM ATP, 200 mM HIV, 1 mg/ml enzyme, 72 h at 30° C.) of the same molecule?
Its value is 5.5.

What about the “signal-to-noise ratio (measured in the absence of enzyme) for the conversion yield” value ([4]; in some conditions, example 5) of the same molecule?
The value was “approximately 100 fold”.

What about the “ratio of the signal over background noise” value ([4]; optimized: 100 mM citrate, 50 mM KCl, 40 mM ATP, 200 mM HIV, 1 mg/ml enzyme, 48 h at 50° C., GC-FID) of the same molecule?
The value was “approximately 100”.

What about the “level of isobutylene (IBN) production in library screening” value [5] of the same molecule?
Its value is “highest levels”.
